Test results reported in patent US20210388087A1 (Chugai, published 2021).
Residue numbers refer to the chain shown, from its start. Values belong to the binder of their own block, whether it stands above or below them.

Target: T1, Human CD137 ECD (human)
T1 construct: entry includes C-terminal His-tag and biotin acceptor peptide; also called human CD137 extracellular domain; 4-1BB
Test: Biacore SPR, vs parent H183/L072

T1 sequence (chain, as listed by the source limits assumed): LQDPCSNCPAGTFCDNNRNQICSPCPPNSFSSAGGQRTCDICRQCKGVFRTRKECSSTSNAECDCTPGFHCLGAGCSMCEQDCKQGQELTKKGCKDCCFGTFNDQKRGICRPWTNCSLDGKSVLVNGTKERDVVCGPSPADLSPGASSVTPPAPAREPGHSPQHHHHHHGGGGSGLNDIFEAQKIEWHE

B1: H183/L072 VL P56E (antibody, name in Kabat numbering, V domains shown)
VH: QVQLVESGGGLVQPGRSLRLSCAASGFTFSNAWMHWVRQAPGKGLEWVAQIKDKGNAYAAYYAPSVKGRFTISRDDSKNSIYLQMNSLKTEDTAVYYCHYVHYASASTVLPAFGVDAWGQGTTVTVSS
VL: DIVMTQSPLSLPVTPGEPASISCQASQELVHMNRNTYLHWYQQKPGQAPRLLIYKVSNRFEGVPDRFSGSGSGTDFTLKISRVEAEDVGVYYCAQGTSVPFTFGQGTKLEIK
notes: Dual-Ig
fold change of affinity: 0.1 fold

B6: H183/L072 VL P56T (antibody, name in Kabat numbering, V domains shown)
VH: B1 VH
VL: B1 VL with E61T
notes: Dual-Ig
fold change of affinity: 0.2 fold

B7: H183/L072 VL P95E (antibody, name in Kabat numbering, V domains shown)
VH: B1 VH
VL: B1 VL with E61P, P100E
notes: Dual-Ig
fold change of affinity: 0 fold

B8: H183/L072 VL P56R (antibody, name in Kabat numbering, V domains shown)
VH: B1 VH
VL: B1 VL with E61R
notes: Dual-Ig
fold change of affinity: 0 fold

B10: H183/L072 VL P56M (antibody, name in Kabat numbering, V domains shown)
VH: B1 VH
VL: B1 VL with E61M
notes: Dual-Ig
fold change of affinity: 0.2 fold

B12: H183/L072 VL P95D (antibody, name in Kabat numbering, V domains shown)
VH: B1 VH
VL: B1 VL with E61P, P100D
notes: Dual-Ig
fold change of affinity: 0 fold

B13: H183/L072 VL P56N (antibody, name in Kabat numbering, V domains shown)
VH: B1 VH
VL: B1 VL with E61N
notes: Dual-Ig
fold change of affinity: 0.2 fold

B14: H183/L072 VL P95M (antibody, name in Kabat numbering, V domains shown)
VH: B1 VH
VL: B1 VL with E61P, P100M
notes: Dual-Ig
fold change of affinity: 0 fold

B15: H183/L072 VL P95Q (antibody, name in Kabat numbering, V domains shown)
VH: B1 VH
VL: B1 VL with E61P, P100Q
notes: Dual-Ig
fold change of affinity: 0 fold

B17: H183/L072 VL P56I (antibody, name in Kabat numbering, V domains shown)
VH: B1 VH
VL: B1 VL with E61I
notes: Dual-Ig
fold change of affinity: 0.1 fold

B18: H183/L072 VL P95I (antibody, name in Kabat numbering, V domains shown)
VH: B1 VH
VL: B1 VL with E61P, P100I
notes: Dual-Ig
fold change of affinity: 0 fold

B19: H183/L072 VL P95N (antibody, name in Kabat numbering, V domains shown)
VH: B1 VH
VL: B1 VL with E61P, P100N
notes: Dual-Ig
fold change of affinity: 0 fold

B20: H183/L072 VL P56F (antibody, name in Kabat numbering, V domains shown)
VH: B1 VH
VL: B1 VL with E61F
notes: Dual-Ig
fold change of affinity: 0 fold

B22: H183/L072 VL P56L (antibody, name in Kabat numbering, V domains shown)
VH: B1 VH
VL: B1 VL with E61L
notes: Dual-Ig
fold change of affinity: 0.1 fold

B24: H183/L072 VL P95F (antibody, name in Kabat numbering, V domains shown)
VH: B1 VH
VL: B1 VL with E61P, P100F
notes: Dual-Ig
fold change of affinity: 0 fold

B25: H183/L072 VL P95A (antibody, name in Kabat numbering, V domains shown)
VH: B1 VH
VL: B1 VL with E61P, P100A
notes: Dual-Ig
fold change of affinity: 0 fold

B27: H183/L072 VL P56W (antibody, name in Kabat numbering, V domains shown)
VH: B1 VH
VL: B1 VL with E61W
notes: Dual-Ig
fold change of affinity: 0 fold

B32: H183/L072 VL P56S (antibody, name in Kabat numbering, V domains shown)
VH: B1 VH
VL: B1 VL with E61S
notes: Dual-Ig
fold change of affinity: 0.1 fold

B33: H183/L072 VL P95H (antibody, name in Kabat numbering, V domains shown)
VH: B1 VH
VL: B1 VL with E61P, P100H
notes: Dual-Ig
fold change of affinity: 0 fold

B34: H183/L072 VL P56K (antibody, name in Kabat numbering, V domains shown)
VH: B1 VH
VL: B1 VL with E61K
notes: Dual-Ig
fold change of affinity: 0 fold

B36: H183/L072 VL P95G (antibody, name in Kabat numbering, V domains shown)
VH: B1 VH
VL: B1 VL with E61P, P100G
notes: Dual-Ig
fold change of affinity: 0 fold

B37: H183/L072 VL P95L (antibody, name in Kabat numbering, V domains shown)
VH: B1 VH
VL: B1 VL with E61P, P100L
notes: Dual-Ig
fold change of affinity: 0 fold

B39: H183/L072 VL P56H (antibody, name in Kabat numbering, V domains shown)
VH: B1 VH
VL: B1 VL with E61H
notes: Dual-Ig
fold change of affinity: 0 fold

B42: H183/L072 VL P95K (antibody, name in Kabat numbering, V domains shown)
VH: B1 VH
VL: B1 VL with E61P, P100K
notes: Dual-Ig
fold change of affinity: 0 fold

B43: H183/L072 VL P56Q (antibody, name in Kabat numbering, V domains shown)
VH: B1 VH
VL: B1 VL with E61Q
notes: Dual-Ig
fold change of affinity: 0.2 fold

B44: H183/L072 VL P56G (antibody, name in Kabat numbering, V domains shown)
VH: B1 VH
VL: B1 VL with E61G
notes: Dual-Ig
fold change of affinity: 0.1 fold

B46: H183/L072 VL P56V (antibody, name in Kabat numbering, V domains shown)
VH: B1 VH
VL: B1 VL with E61V
notes: Dual-Ig
fold change of affinity: 0 fold

The remaining lines, values ahead:

fold change of affinity: 1 fold
B2: H183/L072 VL Q24T (antibody, name in Kabat numbering, V domains shown)
VH: B1 VH
VL: B1 VL with Q24T, E61P
notes: Dual-Ig

fold change of affinity: 1 fold
B3: H183/L072 VL Q24G (antibody, name in Kabat numbering, V domains shown)
VH: B1 VH
VL: B1 VL with Q24G, E61P
notes: Dual-Ig

fold change of affinity: 1 fold
B4: H183/L072 VL Q24A (antibody, name in Kabat numbering, V domains shown)
VH: B1 VH
VL: B1 VL with Q24A, E61P
notes: Dual-Ig

fold change of affinity: 0 fold
B5: H183/L072 VL P95S (antibody, name in Kabat numbering, V domains shown)
VH: B1 VH
VL: B1 VL with E61P, P100S
notes: Dual-Ig

fold change of affinity: 0 fold
B9: H183/L072 VL P95V (antibody, name in Kabat numbering, V domains shown)
VH: B1 VH
VL: B1 VL with E61P, P100V
notes: Dual-Ig

fold change of affinity: 0 fold
B11: H183/L072 VL P95R (antibody, name in Kabat numbering, V domains shown)
VH: B1 VH
VL: B1 VL with E61P, P100R
notes: Dual-Ig

fold change of affinity: 0 fold
B16: H183/L072 VL P95W (antibody, name in Kabat numbering, V domains shown)
VH: B1 VH
VL: B1 VL with E61P, P100W
notes: Dual-Ig

fold change of affinity: 1 fold
B21: H183/L072 VL Q24H (antibody, name in Kabat numbering, V domains shown)
VH: B1 VH
VL: B1 VL with Q24H, E61P
notes: Dual-Ig

fold change of affinity: 0.9 fold
B23: H183/L072 VL Q24R (antibody, name in Kabat numbering, V domains shown)
VH: B1 VH
VL: B1 VL with Q24R, E61P
notes: Dual-Ig

fold change of affinity: 1 fold
B26: H183/L072 VL Q24S (antibody, name in Kabat numbering, V domains shown)
VH: B1 VH
VL: B1 VL with Q24S, E61P
notes: Dual-Ig

fold change of affinity: 0 fold
B28: H183/L072 VL P95T (antibody, name in Kabat numbering, V domains shown)
VH: B1 VH
VL: B1 VL with E61P, P100T
notes: Dual-Ig

fold change of affinity: 0.9 fold
B29: H183/L072 VL Q24I (antibody, name in Kabat numbering, V domains shown)
VH: B1 VH
VL: B1 VL with Q24I, E61P
notes: Dual-Ig

fold change of affinity: 0.9 fold
B30: H183/L072 VL Q24N (antibody, name in Kabat numbering, V domains shown)
VH: B1 VH
VL: B1 VL with Q24N, E61P
notes: Dual-Ig

fold change of affinity: 0.9 fold
B31: H183/L072 VL Q24L (antibody, name in Kabat numbering, V domains shown)
VH: B1 VH
VL: B1 VL with Q24L, E61P
notes: Dual-Ig

fold change of affinity: 0.9 fold
B35: H183/L072 VL Q24F (antibody, name in Kabat numbering, V domains shown)
VH: B1 VH
VL: B1 VL with Q24F, E61P
notes: Dual-Ig

fold change of affinity: 0 fold
B38: H183/L072 VL Q24P (antibody, name in Kabat numbering, V domains shown)
VH: B1 VH
VL: B1 VL with Q24P, E61P
notes: Dual-Ig

fold change of affinity: 1 fold
B40: H183/L072 VL Q24M (antibody, name in Kabat numbering, V domains shown)
VH: B1 VH
VL: B1 VL with Q24M, E61P
notes: Dual-Ig

fold change of affinity: 0.9 fold
B41: H183/L072 VL Q24D (antibody, name in Kabat numbering, V domains shown)
VH: B1 VH
VL: B1 VL with Q24D, E61P
notes: Dual-Ig

fold change of affinity: 1 fold
B45: H183/L072 VL Q24K (antibody, name in Kabat numbering, V domains shown)
VH: B1 VH
VL: B1 VL with Q24K, E61P
notes: Dual-Ig
